According to publication PMC2588538, “Structure of Reovirus σ1 in Complex with Its Receptor Junctional Adhesion Molecule-A” (PLoS Pathogens, 2008):

B1: D1 domain of human junctional adhesion molecule-A (hJAM-A D1; residues 28–129) (domain or fragment)
chain: GSSVTVHSSEPEVRIPENNPVKLSCAYSGFSSPRVEWKFDQGDTTRLVCYNNKITASYEDRVTFLPTGITFKSVTREDTGTYTCMVSEEGGNSYGEVKVKLIVL
notes: two non-native residues left at the N-terminus after removal of GST, numbered Gly26 and Ser27; human junctional adhesion molecule-A, membrane-distal D1 domain, residues 28-129; Homodimer in solution at neutral pH; also called wt D1; source: E. coli BL21 (DE3) pLysS, purified (GSTrap, on-column thrombin cleavage, SEC); not shown: GST, N-terminal, cleaved
B2: reovirus type 3 Dearing (T3D) σ1 fragment comprising the head domain and one β-spiral of the tail (σ1H; residues 293–455) (domain or fragment)
chain: GSSPNLRYPIADVSGGIGMSPNYRFRQSMWIGIVSYSGSGLNWRVQVNSDIFIVDDYIHICLPAFDGFSIADGGDLSLNFVTGLLPPLLTGDTEPAFHNDVVTYGAQTVAIGLSSGGAPQYMSKNLWVEQWQDGVLRLRVEGGGSITHSNSKWPAMTVSYPRSFT
notes: two non-native residues left at the N-terminus after removal of GST, numbered Gly291 and Ser292; reovirus attachment protein σ1, strain type 3 Dearing (T3D), residues 293-455 (head domain and one β-spiral of the tail); Trimer in the crystal; also called T3D σ1 head domain; not shown: GST, N-terminal, cleaved

Assays:
CAR (Homo sapiens) = CAR (Homo sapiens) (UniProt P78310); settings: cited from earlier work
[1] = biological target: B2; experiment: crystal structure; σ1H-D1 complex, 3.4 Å, space group P2_(1)2_(1)2; crystals from 0.1 M CHES pH 9.5, polyethylene glycol 3350, 20°C; two σ1H trimers each with three D1 monomers in the asymmetric unit; settings: both partners purified
[2] = biological target: the molecule itself; experiment: AUC; sedimentation equilibrium, 17.5/25/35 krpm, 25°C, 20 mM Tris pH 7.5, 100 mM NaCl; four concentrations 0.16 to 1.6 mg/mL; monomer-dimer model with variable amounts of tetramer; dimer to monomers
[3] = biological target: the molecule itself; experiment: AUC; sedimentation velocity, 50 krpm, 25°C, 20 mM Tris pH 7.5, 100 mM NaCl; five concentrations 0.06 to 1.31 mg/mL; interference optics
[4] = biological target: the molecule itself; experiment: crystal structure; σ1H-D1 complex, 3.4 Å, space group P2_(1)2_(1)2; crystals from 0.1 M CHES pH 9.5, polyethylene glycol 3350, 20°C; two σ1H trimers each with three D1 monomers in the asymmetric unit

CAR (from UniProt P78310)
Kd (CAR (Homo sapiens)): 16 µM

B1
binding result [1]: binds | Kd [2]: 11 µM | stoichiometry N [3]: 2

B2
stoichiometry N [4]: 3
